In US7527954:

Target: biotinylated Calmodulin-binding peptide, biotin-…
Experiment: model selection from a 4200:1 mixture (ED-B:Calmodulin templates) on peptide-coated magnetic beads; 35-cycle PCR, 1:10^5 dilution, real-time PCR on 1 µl; background carry-over of the excess non-binder

Chain of biotinylated Calmodulin-binding peptide, biotin-… (peptide, as listed by the source): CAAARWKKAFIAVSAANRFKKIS

M.Hae III-ED-B fusion protein (covalently bonded to the linear DNA coding for it) (from UniProt P20589 1-330; P02751 1266-1356)
DNA molecules detected after selection (DNA molecules): 1.4e+06
